B1: Cadherin-related family member 5 (Homo sapiens), Q9HBB8 (parent)
chain: MGSWALLWPPLLFTGLLVRPPGTMAQAQYCSVNKDIFEVEENTNVTEPLVDIHVPEGQEVTLGALSTPFAFRIQGNQLFLNVTPDYEEKSLLEAQLLCQSGGTLVTQLRVFVSVLDVNDNAPEFPFKTKEIRVEEDTKVNSTVIPETQLQAEDRDKDDILFYTLQEMTAGASDYFSLVSVNRPALRLDRPLDFYERPNMTFWLLVRDTPGENVEPSHTATATLVLNVVPADLRPPWFLPCTFSDGYVCIQAQYHGAVPTGHILPSPLVLRPGPIYAEDGDRGINQPIIYSIFRGNVNGTFIIHPDSGNLTVARSVPSPMTFLLLVKGQQADLARYSVTQVTVEAVAAAGSPPRFPQRLYRGTVARGAGAGVVVKDAAAPSQPLRIQAQDPEFSDLNSAITYRITNHSHFRMEGEVVLTTTTLAQAGAFYAEVEAHNTVTSGTATTVIEIQVSEQEPPSTDVPPSPEAGGTTGPWTSTTSEVPRPPEPSQGPSTTSSGGGTGPHPPSGTTLRPPTSSTPGGPPGAENSTSHQPATPGGDTAQTPKPGTSQPMPPGVGTSTSHQPATPSGGTAQTPEPGTSQPMPPSMGTSTSHQPATPGGGTAQTPEAGTSQPMPPGMGTSTSHQPTTPGGGTAQTPEPGTSQPMPLSKSTPSSGGGPSEDKRFSVVDMAALGGVLGALLLLALLGLAVLVHKHYGPRLKCCCGKAPEPQPQGFDNQAFLPDHKANWAPVPSPTHDPKPAEAPMPAEPAPPGPASPGGAPEPPAAARAGGSPTAVRSILTKERRPEGGYKAVWFGEDIGTEADVVVLNAPTLDVDGASDSGSGDEGEGAGRGGGPYDAPGGDDSYI
partner: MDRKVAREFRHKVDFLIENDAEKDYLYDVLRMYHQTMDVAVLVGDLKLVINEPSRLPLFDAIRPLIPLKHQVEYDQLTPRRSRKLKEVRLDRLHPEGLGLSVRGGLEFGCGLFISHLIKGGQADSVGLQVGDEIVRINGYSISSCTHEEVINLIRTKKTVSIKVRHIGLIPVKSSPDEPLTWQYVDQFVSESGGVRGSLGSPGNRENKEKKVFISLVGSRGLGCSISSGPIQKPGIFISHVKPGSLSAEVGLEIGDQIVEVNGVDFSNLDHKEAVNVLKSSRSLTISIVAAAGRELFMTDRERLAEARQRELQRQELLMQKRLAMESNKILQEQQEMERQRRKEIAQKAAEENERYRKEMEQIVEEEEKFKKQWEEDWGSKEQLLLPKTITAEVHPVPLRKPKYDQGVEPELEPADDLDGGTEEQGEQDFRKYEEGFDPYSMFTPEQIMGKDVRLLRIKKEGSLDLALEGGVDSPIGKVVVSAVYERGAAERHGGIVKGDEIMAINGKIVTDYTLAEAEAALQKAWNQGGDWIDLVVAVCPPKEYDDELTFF
B2: Cadherin-related family member 2 (Homo sapiens), Q9BYE9 (parent)
chain: MAQLWLSCFLLPALVVSVAANVAPKFLANMTSVILPEDLPVGAQAFWLVAEDQDNDPLTYGMSGPNAYFFAVTPKTGEVKLASALDYETLYTFKVTISVSDPYIQVQREMLVIVEDRNDNAPVFQNTAFSTSINETLPVGSVVFSVLAVDKDMGSAGMVVYSIEKVIPSTGDSEHLFRILANGSIVLNGSLSYNNKSAFYQLELKACDLGGMYHNTFTIQCSLPVFLSISVVDQPDLDPQFVREFYSASVAEDAAKGTSVLTVEAVDGDKGINDPVIYSISYSTRPGWFDIGADGVIRVNGSLDREQLLEADEEVQLQVTATETHLNIYGQEAKVSIWVTVRVMDVNDHKPEFYNCSLPACTFTPEEAQVNFTGYVDEHASPRIPIDDLTMVVYDPDKGSNGTFLLSLGGPDAEAFSVSPERAVGSASVQVLVRVSALVDYERQTAMAVQVVATDSVSQNFSVAMVTIHLRDINDHRPTFPQSLYVLTVPEHSATGSVVTDSIHATDPDTGAWGQITYSLLPGNGADLFQVDPVSGTVTVRNGELLDRESQAVYYLTLQATDGGNLSSSTTLQIHLLDINDNAPVVSGSYNIFVQEEEGNVSVTIQAHDNDEPGTNNSRLLFNLLPGPYSHNFSLDPDTGLLRNLGPLDREAIDPALEGRIVLTVLVSDCGEPVLGTKVNVTITVEDINDNLPIFNQSSYNFTVKEEDPGVLVGVVKAWDADQTEANNRISFSLSGSGANYFMIRGLVLGAGWAEGYLRLPPDVSLDYETQPVFNLTVSAENPDPQGGETIVDVCVNVKDVNDNPPTLDVASLRGIRVAENGSQHGQVAVVVASDVDTSAQLEIQLVNILCTKAGVDVGSLCWGWFSVAANGSVYINQSKAIDYEACDLVTLVVRACDLATDPGFQAYSNNGSLLITIEDVNDNAPYFLPENKTFVIIPELVLPNREVASVRARDDDSGNNGVILFSILRVDFISKDGATIPFQGVFSIFTSSEADVFAGSIQPVTSLDSTLQGTYQVTVQARDRPSLGPFLEATTTLNLFTVDQSYRSRLQFSTPKEEVGANRQAINAALTQATRTTVYIVDIQDIDSAARARPHSYLDAYFVFPNGSALTLDELSVMIRNDQDSLTQLLQLGLVVLGSQESQESDLSKQLISVIIGLGVALLLVLVIMTMAFVCVRKSYNRKLQAMKAAKEARKTAAGVMPSAPAIPGTNMYNTERANPMLNLPNKDLGLEYLSPSNDLDSVSVNSLDDNSVDVDKNSQEIKEHRPPHTPPEPDPEPLSVVLLGRQAGASGQLEGPSYTNAGLDTTDL
partner: B1 partner
B3: Cadherin-related family member 5 (Homo sapiens), Q9HBB8-2 (parent)
chain: MGSWALLWPPLLFTGLLVRPPGTMAQAQYCSVNKDIFEVEENTNVTEPLVDIHVPEGQEVTLGALSTPFAFRIQGNQLFLNVTPDYEEKSLLEAQLLCQSGGTLVTQLRVFVSVLDVNDNAPEFPFKTKEIRVEEDTKVNSTVIPETQLQAEDRDKDDILFYTLQEMTAGASDYFSLVSVNRPALRLDRPLDFYERPNMTFWLLVRDTPGENVEPSHTATATLVLNVVPADLRPPWFLPCTFSDGYVCIQAQYHGAVPTGHILPSPLVLRPGPIYAEDGDRGINQPIIYSIFRGNVNGTFIIHPDSGNLTVARSVPSPMTFLLLVKGQQADLARYSVTQVTVEAVAAAGSPPRFPQRLYRGTVARGAGAGVVVKDAAAPSQPLRIQAQDPEFSDLNSAITYRITNHSHFRMEGEVVLTTTTLAQAGAFYAEVEAHNTVTSGTATTVIEIQVSEQEPPSTGGGPSEDKRFSVVDMAALGGVLGALLLLALLGLAVLVHKHYGPRLKCCCGKAPEPQPQGFDNQAFLPDHKANWAPVPSPTHDPKPAEAPMPAEPAPPGPASPGGAPEPPAAARAGGSPTAVRSILTKERRPEGGYKAVWFGEDIGTEADVVVLNAPTLDVDGASDSGSGDEGEGAGRGGGPYDAPGGDDSYI
partner: B2 chain

Variants of: B1
Details: with USH1C

Row | effect of a mutation on the interaction | Variant
1 | disrupting interaction strength | I845R

Variants of: B2
Details: with USH1C

Row | effect of a mutation on the interaction | Variant
2 | disrupting interaction strength | L1310R

Variants of: B3
Details: with cdhr2_human CDHR2, Q9BYE9

Row | effect of a mutation on the interaction | Variant
3 | disrupting interaction strength | R109G

Reference: IntAct's records for PubMed 24725409
